Reference: patent US20240301052A1 (LANOVA MEDICINES DEVELOPMENT, published 2024)
“And” between values parts separate entries of the source, which are not always exact repeats. Equal entries are not always repeated. Where two headings read alike, the source gives them in different places.

How the values were obtained:
[1] = molecular target: T1, human SLC34A2 (human, UniProt O95436 1-690); assay: FACS, OVCAR3 cells
T1 sequence (looked up): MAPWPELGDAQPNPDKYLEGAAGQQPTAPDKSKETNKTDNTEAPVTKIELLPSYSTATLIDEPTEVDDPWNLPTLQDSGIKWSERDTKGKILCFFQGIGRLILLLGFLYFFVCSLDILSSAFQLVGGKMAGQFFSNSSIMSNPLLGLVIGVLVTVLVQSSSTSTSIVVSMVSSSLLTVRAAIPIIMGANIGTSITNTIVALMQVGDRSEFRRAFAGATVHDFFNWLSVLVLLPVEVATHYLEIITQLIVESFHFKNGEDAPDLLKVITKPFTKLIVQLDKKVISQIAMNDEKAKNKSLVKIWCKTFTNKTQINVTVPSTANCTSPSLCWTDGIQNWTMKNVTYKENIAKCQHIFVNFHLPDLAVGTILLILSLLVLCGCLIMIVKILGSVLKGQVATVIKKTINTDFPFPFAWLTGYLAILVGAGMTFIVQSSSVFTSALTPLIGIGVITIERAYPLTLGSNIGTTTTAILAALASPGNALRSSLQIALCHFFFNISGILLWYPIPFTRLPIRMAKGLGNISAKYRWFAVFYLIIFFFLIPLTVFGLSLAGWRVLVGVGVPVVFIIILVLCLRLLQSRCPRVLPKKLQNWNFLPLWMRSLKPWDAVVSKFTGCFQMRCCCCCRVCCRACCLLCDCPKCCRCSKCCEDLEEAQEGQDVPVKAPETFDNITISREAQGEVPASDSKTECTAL

[2] = molecular target: Cynomolgus SLC34A2 (Cynomolgus); assay: FACS, cells expressing Cynomolgus SLC34A2
[3] = molecular target: T1, human SLC34A2; assay: FACS, OVCAR3 cells; remark: listed apart in the source
[4] = molecular target: T1, human SLC34A2; assay: FACS, HEK293/human SLC34A2 cells
[5] = molecular target: T1, human SLC34A2; assay: FACS, HEK293/human SLC34A2 cells; remark: listed apart in the source
[6] = molecular target: T2, Rhesus SLC34A2 (Rhesus, UniProt F7HDA3 1-690); assay: FACS, HEK293/Rhesus SLC34A2 cells
T2 construct: whole, on cells
T2 sequence: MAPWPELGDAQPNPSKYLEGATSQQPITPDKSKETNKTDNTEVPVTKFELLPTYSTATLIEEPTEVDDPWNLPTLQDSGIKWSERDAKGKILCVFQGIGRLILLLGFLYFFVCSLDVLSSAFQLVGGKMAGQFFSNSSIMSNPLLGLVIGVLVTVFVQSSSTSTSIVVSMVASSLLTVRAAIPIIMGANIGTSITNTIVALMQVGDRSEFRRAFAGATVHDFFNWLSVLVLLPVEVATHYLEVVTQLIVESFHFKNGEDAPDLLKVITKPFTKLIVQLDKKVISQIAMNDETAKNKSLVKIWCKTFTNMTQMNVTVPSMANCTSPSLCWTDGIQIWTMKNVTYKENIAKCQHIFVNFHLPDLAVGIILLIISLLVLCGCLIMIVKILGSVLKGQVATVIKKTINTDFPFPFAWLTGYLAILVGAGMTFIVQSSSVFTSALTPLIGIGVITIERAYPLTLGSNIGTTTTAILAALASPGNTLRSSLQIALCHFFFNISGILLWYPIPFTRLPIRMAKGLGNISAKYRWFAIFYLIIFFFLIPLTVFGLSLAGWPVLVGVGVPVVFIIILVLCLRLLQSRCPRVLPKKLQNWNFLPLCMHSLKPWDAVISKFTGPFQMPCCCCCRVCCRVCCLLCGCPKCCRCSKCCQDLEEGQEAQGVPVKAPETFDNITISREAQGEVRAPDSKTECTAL

[7] = molecular target: T1, human SLC34A2; assay: FACS, RMG-1 cells
[8] = molecular target: T2, Rhesus SLC34A2; assay: FACS, HEK293/Rhesus SLC34A2 cells; remark: listed apart in the source
[9] = molecular target: T1, human SLC34A2; assay: FACS, OVCAR3 cells; remark: listed apart in the source
[10] = molecular target: T2, Rhesus SLC34A2; assay: FACS, HEK293/Rhesus SLC34A2 cells; remark: listed apart in the source
[11] = molecular target: T1, human SLC34A2; assay: FACS, OVCAR3 cells; remark: listed apart in the source
[12] = molecular target: T1, human SLC34A2; assay: cell-based or functional assay
[13] = molecular target: T1, human SLC34A2; assay: FACS, RMG-1 cells; remark: listed apart in the source
[14] = molecular target: T1, human SLC34A2; assay: FACS, RMG-1 cells; remark: listed apart in the source
[15] = molecular target: T1, human SLC34A2; assay: FACS, OVCAR3 cells; remark: listed apart in the source

B1: XMT-1536 (antibody, INN chains, looked up, V domains shown)
VH: QVQLVQSGAEVVKPGASVKMSCKASGYTFTGYNIHWVKQAPGQGLEWIGAIYPGNGDTSYKQKFRGRATLTADTSTSTVYMELSSLRSEDSAVYYCARGETARATFAYWGQGTLVTVSS
VL: DIQMTQSPSSLSASVGDRVTITCSASQDIGNFLNWYQQKPGKTVKVLIYYTSSLYSGVPSRFSGSGSGTDYTLTISSLQPEDFATYYCQQYSKLPLTFGQGTKLELK
modifications: rilsodotin auristatin payload
With B1 the EC50 [1] was 4.31 nM and 3.99 nM, the Top (MFI) [1] was 40200 MFI and 26700 MFI and the EC50 [2] was 3.72 nM. It also gave an EC50 [3] of 6.87 nM, a Top (MFI) [3] of 29000 MFI and an EC50 [4] of 4.27 nM. It also gave an EC50 [5] of 2.5 nM, a Top (MFI) [5] of 27700 MFI and an EC50 [6] of 2.54 nM. For the same binder, the Top (MFI) [6] was 11900 MFI, the EC50 [7] was 4.87 nM and the Top (MFI) [7] was 9110 MFI. For the same binder, the EC50 [8] was 5.8 nM, the Top (MFI) [8] was 27000 MFI and the EC50 [9] was 3.8 nM. The Top [9] was 29000 MFI, the Top (MFI) [9] was 58400 MFI and the EC50 [10] was 2.6 nM. For the same binder, the Top (MFI) [10] was 11500 MFI, the EC50 [11] was 6.82 nM and the ADCC reporter EC50 [12] was 0.76 nM. For the same binder, the ADCC reporter Top (MFI) [12] was 127000 MFI, the ADCC-HEK293 [12] was 0.76 nM and the ADCC-OVCAR3 [12] was 0.25 nM. It also gave a Cytotoxic Effect - MDAH-2774 [12] of 0.28 nM, a Cytotoxic Effect - OVCAR3 [12] of 0.029 nM and a cytotoxicity EC50 [12] of 0.72 nM. For the same binder, the cytotoxicity Inhibition % [12] was 100%, the EC50 [13] was 7.2 nM and the EC50 [14] was 7.17 nM. For the same binder, the Top [14] was 9940 MFI and the EC50 [15] was 6.8 nM.
